Results: the Human Domainome abundance scans (Beltran et al. 2025)

B1: Activity-dependent neuroprotector homeobox protein, residues 770 to 810; numbered along this chain, Q9H2P0 (parent)
chain: FLTKYFNKQPYPTRREIEKLAASLWLWKSDIASHFSNKRKK

Variants of: B1
Assay: abundance fitness (aPCA) (normalised: wild type 0, dead -1); higher = more abundant; growth selection in yeast, the domain comes from the species named
Details: Homo sapiens

Abundance fitness: each site, then its substitutions
S33: F -0.244, M -0.061, A 0.014, N -0.284, I -0.149, Q -0.033, W -0.147, T -0.076, H 0.018, Y -0.381, L -0.154, R 0.032, K 0.044
K41: Q 0.153, C -0.261, M 0.082, T -0.128, R -0.092, N -0.15, L -0.4, D -0.015, G -0.135, E -0.092, P -0.188, H -0.214, I -0.277, A -0.319
A22: K 0.075, Q 0.045, V -0.344, E -0.162, F -0.594, L -0.396, N -0.015, W -0.193, T -0.087, I -0.368, G -0.058, M -0.084, S -0.117, R -0.027, Y -0.303, C -0.229, D -0.25
W27: Y -0.227, D -0.22, G 0.037, L -0.04, R 0.025, C -0.188, A -0.084, E -0.74, Q -0.492, M -0.031, V -0.061, T -0.152, N -0.295, P -0.398, H -0.137, K 0.067
H34: T -0.128, R -0.085, Y -0.151, C 0.069, E -0.275, D -0.388, M 0.043, Q -0.032, G -0.043, S -0.02, K 0.022, P -0.01, V 0.117, I 0.068, A 0.006, N -0.107
N37: A -0.093, G 0.022, E -0.142, L 0.061, M 0.013, C -0.002, H -0.072, P -0.107, W 0.023, I 0.028, V -0.091, K 0.131, S -0.019, Q -0.141, F -0.044, R -0.081, T -0.077
A32: R 0.029, S -0.196, T -0.086, P -0.383, C 0.074, Q -0.169, W 0.113
F35: N -0.205, L -0.023, D -0.157, Q -0.238, S -0.156, K -0.211, P -0.231, T -0.229, H -0.237, V -0.063, I -0.208, Y -0.235, G -0.112, C -0.347, A -0.119, M 0.004, E -0.068
K28: M 0.438, I 0.445, C 0.317, W 0.13, H -0.421, R -0.188, D -0.514, V 0.508, Q -0.184, E -0.463, L 0.55, S 0.028, T 0.18, N -0.244, A 0.333, Y -0.443, P 0.257, G 0.048, F 0.435
S36: V -0.262, D -0.159, E -0.395, L -0.316, F -0.055, Y -0.37, A -0.049, H 0.01, I -0.091, G 0.083, C -0.006, P -0.047, K 0.051, R 0.087, T 0.059, W -0.177, Q -0.085, M -0.037
S29: F -0.43, I 0.031, H 0.077, C -0.206, P 0.229, L -0.145, Q 0.173, V -0.302, K 0.208, R -0.088, M -0.124, G -0.014, E -0.294
